Results as given in patent US12146183B2, “Compound and a method for identifying a protein using said compound” (CITY UNIVERSITY OF HONG KONG, priority 2020, dated 2024).

T1: Sirt2 (Homo sapiens, UniProt Q8IXJ6)
T1 construct: made in house
T1 sequence (Q8IXJ6 1-389): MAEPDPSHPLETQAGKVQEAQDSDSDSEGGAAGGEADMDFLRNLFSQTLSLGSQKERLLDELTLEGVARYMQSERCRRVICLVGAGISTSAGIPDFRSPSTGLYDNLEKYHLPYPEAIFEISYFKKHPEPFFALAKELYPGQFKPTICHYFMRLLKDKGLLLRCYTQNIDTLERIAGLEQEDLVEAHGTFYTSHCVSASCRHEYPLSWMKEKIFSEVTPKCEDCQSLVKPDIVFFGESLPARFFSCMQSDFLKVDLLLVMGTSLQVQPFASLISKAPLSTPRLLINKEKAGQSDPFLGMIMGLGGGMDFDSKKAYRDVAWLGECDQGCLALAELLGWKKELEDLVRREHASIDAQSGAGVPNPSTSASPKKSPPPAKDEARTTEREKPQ


How the values were obtained:
Sirt2 = biological target: T1, Sirt2; experiment: In-gel fluorescence photo-crosslinking labelling of recombinant Sirt2; type: binding; conditions: competition with probe KPlip
Protocol: The labelling efficiency of KPlip with recombinant Sirt2 was investigated. The Sirt2 enzyme was first incubated with either KPlip or a negative control probe, KPlip-C(lacking lipoylation), followed by 15 min of UV irradiation. Following click chemistry with rhodamine azide (Rh—N3), the reaction mixtures were resolved by SDS-PAGE and analysed by in-gel fluorescence scanning.
A further selectivity study was performed. […] To examine whether lipoic acid of KPlip forms a disulfide bond with cysteine residues in Sirt2, excessive reducing reagent TCEP was added to the solution containing Sirt2 and KPlip prior to UV irradiation.
20 μM azide reagent was added to the protein samples labelled by KPlip and KPlip-C. Tris(2-carboxyethyl)phosphine (0.4 mM), tris(3-hydroxypropyltriazolylmethyl)amine (40 μM), and CuSO 4 (0.4 mM) were then added. The reaction was kept at room temperature for 2 h.
After click chemistry reaction with rhodamine-azide, chilled acetone was added to the reaction mixtures. The reaction was then placed in a −20° C. freezer for 1 h to precipitate the proteins. The pellets were washed with cold methanol and air-dried. Finally, they were redissolved in 1×SDS loading buffer by heating at 95° C. for 10 min and then resolved by SDS-PAGE. The labelled proteins were visualized using a FLA-9000 Fujifilm scanner (Ex=532 nm).

[1] = substrate: CC[C@H](C)[C@H](NC(=O)[C@@H](NC(=O)[C@H](C)NC(=O)[C@H](CCCCNC(=O)CCCCC1CCSS1)NC(=O)[C@H](CC(=O)O)NC(=O)[C@@H](NC(=O)[C@H](CCC(=O)O)NC(=O)[C@@H](NC(=O)[C@@H](N)CCC(=O)O)[C@@H](C)CC)[C@@H](C)O)[C@@H](C)O)C(=O)NCC(=O)N[C@@H](Cc1c[nH]c2ccccc12)C(=O)N[C@@H](Cc1c[nH]c2ccccc12)C(=O)O; experiment: Steady-state kinetic study of lipoylated peptides with Sirt2 (HPLC); type: biochemical; conditions: other: Sirt2, 400 μM NAD+, HEPES pH 8.0, 37° C.
Protocol: (§1) The delipoylation activity of HDAC8 was further examined using KAlip-5 and KAlip-1. […] A more detailed assessment of the enzymatic delipoylation reaction was performed. Time-dependent experiments and steady-state kinetics studies were conducted of KAlip-1, 5, 8, and 10 with Sirt2 (Table 1).
(§2) To determine the values of kcat, and Km, purified Sirt2 with 400 μM NAD+ was incubated with different concentrations of lipoylated peptide (0-120 μM) in 20 mM HEPES buffer (pH 8.0) containing 150 mM NaCl, 1 mM MgCl2, and 2.7 mM KCl at 37° C. for 10 min (KAlip-1 and KAlip-10) or 5 min (KAlip-5 and KAlip-8). The reactions were quenched by adding 250 μL of methanol and then applied for HPLC analysis with a linear gradient of 5% to 85% B (acetonitrile) for 30 min. The generated delipoylated product was quantified based on the peak area monitored at 280 nm. The kcat, and Km, values were calculated by curve-fitting Vinitiai/[E] versus [S]. The experiments were conducted in duplicate.

[2] = substrate: CC(C)[C@H](N)C(=O)N[C@@H](CCC(N)=O)C(=O)N[C@@H](CO)C(=O)N[C@@H](CC(=O)O)C(=O)N[C@@H](CCCCNC(=O)CCCCC1CCSS1)C(=O)N[C@@H](C)C(=O)N[C@@H](CO)C(=O)N[C@H](C(=O)N[C@H](C(=O)N[C@@H](Cc1c[nH]c2ccccc12)C(=O)N[C@@H](Cc1c[nH]c2ccccc12)C(=O)O)[C@@H](C)O)C(C)C; experiment: as above; type: biochemical; conditions: other: Sirt2, 400 μM NAD+, HEPES pH 8.0, 37° C.
Protocol: as §1, §2

[3] = substrate: CSCC[C@H](NC(=O)[C@H](C)NC(=O)[C@H](CCC(=O)O)NC(=O)[C@@H](N)C(C)C)C(=O)N[C@@H](CCCCNC(=O)CCCCC1CCSS1)C(=O)N[C@@H](CC(C)C)C(=O)N[C@@H](CCSC)C(=O)N[C@@H](CC(N)=O)C(=O)N[C@@H](CCC(=O)O)C(=O)N[C@@H](Cc1c[nH]c2ccccc12)C(=O)N[C@@H](Cc1c[nH]c2ccccc12)C(=O)O; experiment: as above; type: biochemical; conditions: other: Sirt2, 400 μM NAD+, HEPES pH 8.0, 37° C.
Protocol: as §1, §2

[4] = substrate: C[C@H](NC(=O)[C@@H](NC(=O)[C@H](CCC(N)=O)NC(=O)[C@@H](N)CCCCN)[C@@H](C)O)C(=O)N[C@@H](CCCNC(=N)N)C(=O)N[C@@H](CCCCNC(=O)CCCCC1CCSS1)C(=O)N[C@@H](CO)C(=O)N[C@H](C(=O)NCC(=O)NCC(=O)N[C@@H](Cc1c[nH]c2ccccc12)C(=O)N[C@@H](Cc1c[nH]c2ccccc12)C(=O)O)[C@@H](C)O; experiment: as above; type: biochemical; conditions: other: Sirt2, 400 μM NAD+, HEPES pH 8.0, 37° C.
Protocol: as §1, §2

Molecule | Inhibition of KPlip labelling of Sirt2 (Sirt2) | Km [1] [µM] | Km [2] [µM] | Km [3] [µM] | Km [4] [µM]
VQSDKlipASVT [lipoylated peptide competitor] | can be inhibited |  |  |  | 
Sirt2 (Homo sapiens) (protein, made in house) MAEPDPSHPLETQAGKVQEAQDSDSDSEGGAAGGEADMDFLRNLFSQTLSLGSQKERLLDELTLEGVARYMQSERCRRVICLVGAGISTSAGIPDFRSPSTGLYDNLEKYHLPYPEAIFEISYFKKHPEPFFALAKELYPGQFKPTICHYFMRLLKDKGLLLRCYTQNIDTLERIAGLEQEDLVEAHGTFYTSHCVSASCRHEYPLSWMKEKIFSEVTPKCEDCQSLVKPDIVFFGESLPARFFSCMQSDFLKVDLLLVMGTSLQVQPFASLISKAPLSTPRLLINKEKAGQSDPFLGMIMGLGGGMDFDSKKAYRDVAWLGECDQGCLALAELLGWKKELEDLVRREHASIDAQSGAGVPNPSTSASPKKSPPPAKDEARTTEREKPQ |  | 18.9 | 26.2 ± 3.3 | 13.5 | 9.7 ± 0.2
